± gives the uncertainty stated by the source.
B1: Ankyrin repeat and SAM domain-containing protein 6, residues 774 to 836; numbered along this chain, Q68DC2 (parent)
chain: DEDELTGILKKLSLEKYQPIFEEQEVDMEAFLTLTDGDLKELGIKTDGSRQQILAAISELNAG

Variants of: B1
Assay: abundance fitness (aPCA) (normalised: wild type 0, dead -1); higher = more abundant; growth selection in yeast, the domain comes from the species named
Conditions: Homo sapiens

Variant	abundance fitness
DEDELTGRLKKLSLEKYQPIFEEQEVDMEAFLTLTDGDLKELGIKTDGSRQQILAAISELNAG [I8R]	-0.238 ± 0.038
DEDELTGPLKKLSLEKYQPIFEEQEVDMEAFLTLTDGDLKELGIKTDGSRQQILAAISELNAG [I8P]	-1.03 ± 0.13
DEDELTGLLKKLSLEKYQPIFEEQEVDMEAFLTLTDGDLKELGIKTDGSRQQILAAISELNAG [I8L]	0.149 ± 0.061
DEDELTGYLKKLSLEKYQPIFEEQEVDMEAFLTLTDGDLKELGIKTDGSRQQILAAISELNAG [I8Y]	-0.186 ± 0.078
DEDELTGNLKKLSLEKYQPIFEEQEVDMEAFLTLTDGDLKELGIKTDGSRQQILAAISELNAG [I8N]	-0.192 ± 0.1
DEDELTGKLKKLSLEKYQPIFEEQEVDMEAFLTLTDGDLKELGIKTDGSRQQILAAISELNAG [I8K]	-0.162 ± 0.044
DEDELTGALKKLSLEKYQPIFEEQEVDMEAFLTLTDGDLKELGIKTDGSRQQILAAISELNAG [I8A]	0.158 ± 0.075
DEDELTGDLKKLSLEKYQPIFEEQEVDMEAFLTLTDGDLKELGIKTDGSRQQILAAISELNAG [I8D]	-0.51 ± 0.1
DEDELTGELKKLSLEKYQPIFEEQEVDMEAFLTLTDGDLKELGIKTDGSRQQILAAISELNAG [I8E]	-0.206 ± 0.079
DEDELTGWLKKLSLEKYQPIFEEQEVDMEAFLTLTDGDLKELGIKTDGSRQQILAAISELNAG [I8W]	-0.163 ± 0.058
DEDELTGFLKKLSLEKYQPIFEEQEVDMEAFLTLTDGDLKELGIKTDGSRQQILAAISELNAG [I8F]	-0.131 ± 0.16
DEDELTGHLKKLSLEKYQPIFEEQEVDMEAFLTLTDGDLKELGIKTDGSRQQILAAISELNAG [I8H]	-0.189 ± 0.072
DEDELTGSLKKLSLEKYQPIFEEQEVDMEAFLTLTDGDLKELGIKTDGSRQQILAAISELNAG [I8S]	-0.265 ± 0.066
DEDELTGQLKKLSLEKYQPIFEEQEVDMEAFLTLTDGDLKELGIKTDGSRQQILAAISELNAG [I8Q]	0.105 ± 0.089
DEDELTGVLKKLSLEKYQPIFEEQEVDMEAFLTLTDGDLKELGIKTDGSRQQILAAISELNAG [I8V]	-0.072 ± 0.1
DEDELTGCLKKLSLEKYQPIFEEQEVDMEAFLTLTDGDLKELGIKTDGSRQQILAAISELNAG [I8C]	-0.029 ± 0.088
DEDELTGMLKKLSLEKYQPIFEEQEVDMEAFLTLTDGDLKELGIKTDGSRQQILAAISELNAG [I8M]	0.145 ± 0.078
DEDELTGTLKKLSLEKYQPIFEEQEVDMEAFLTLTDGDLKELGIKTDGSRQQILAAISELNAG [I8T]	-0.058 ± 0.065
DEDELTGIRKKLSLEKYQPIFEEQEVDMEAFLTLTDGDLKELGIKTDGSRQQILAAISELNAG [L9R]	-0.999 ± 0.068
DEDELTGIGKKLSLEKYQPIFEEQEVDMEAFLTLTDGDLKELGIKTDGSRQQILAAISELNAG [L9G]	-0.917 ± 0.081
DEDELTGIHKKLSLEKYQPIFEEQEVDMEAFLTLTDGDLKELGIKTDGSRQQILAAISELNAG [L9H]	-1.07 ± 0.18
DEDELTGIVKKLSLEKYQPIFEEQEVDMEAFLTLTDGDLKELGIKTDGSRQQILAAISELNAG [L9V]	-0.712 ± 0.072

Variant	abundance fitness
DEDELTGIAKKLSLEKYQPIFEEQEVDMEAFLTLTDGDLKELGIKTDGSRQQILAAISELNAG [L9A]	-0.913 ± 0.091
DEDELTGIIKKLSLEKYQPIFEEQEVDMEAFLTLTDGDLKELGIKTDGSRQQILAAISELNAG [L9I]	-0.741 ± 0.15
DEDELTGIQKKLSLEKYQPIFEEQEVDMEAFLTLTDGDLKELGIKTDGSRQQILAAISELNAG [L9Q]	-0.876 ± 0.16
DEDELTGIFKKLSLEKYQPIFEEQEVDMEAFLTLTDGDLKELGIKTDGSRQQILAAISELNAG [L9F]	-0.077 ± 0.13
DEDELTGITKKLSLEKYQPIFEEQEVDMEAFLTLTDGDLKELGIKTDGSRQQILAAISELNAG [L9T]	-1.29 ± 0.19
DEDELTGISKKLSLEKYQPIFEEQEVDMEAFLTLTDGDLKELGIKTDGSRQQILAAISELNAG [L9S]	-0.729 ± 0.081
DEDELTGIEKKLSLEKYQPIFEEQEVDMEAFLTLTDGDLKELGIKTDGSRQQILAAISELNAG [L9E]	-1.02 ± 0.097
DEDELTGIYKKLSLEKYQPIFEEQEVDMEAFLTLTDGDLKELGIKTDGSRQQILAAISELNAG [L9Y]	-0.935 ± 0.15
DEDELTGIMKKLSLEKYQPIFEEQEVDMEAFLTLTDGDLKELGIKTDGSRQQILAAISELNAG [L9M]	-0.193 ± 0.058
DEDELTGICKKLSLEKYQPIFEEQEVDMEAFLTLTDGDLKELGIKTDGSRQQILAAISELNAG [L9C]	-0.801 ± 0.064
DEDELTGIKKKLSLEKYQPIFEEQEVDMEAFLTLTDGDLKELGIKTDGSRQQILAAISELNAG [L9K]	-1.06 ± 0.15
DEDELTGIWKKLSLEKYQPIFEEQEVDMEAFLTLTDGDLKELGIKTDGSRQQILAAISELNAG [L9W]	-0.963 ± 0.11
DEDELTGILPKLSLEKYQPIFEEQEVDMEAFLTLTDGDLKELGIKTDGSRQQILAAISELNAG [K10P]	-0.525 ± 0.089
DEDELTGILSKLSLEKYQPIFEEQEVDMEAFLTLTDGDLKELGIKTDGSRQQILAAISELNAG [K10S]	-0.185 ± 0.073
DEDELTGILCKLSLEKYQPIFEEQEVDMEAFLTLTDGDLKELGIKTDGSRQQILAAISELNAG [K10C]	-1.01 ± 0.095
DEDELTGILRKLSLEKYQPIFEEQEVDMEAFLTLTDGDLKELGIKTDGSRQQILAAISELNAG [K10R]	-0.327 ± 0.052
DEDELTGILIKLSLEKYQPIFEEQEVDMEAFLTLTDGDLKELGIKTDGSRQQILAAISELNAG [K10I]	-0.815 ± 0.16
DEDELTGILEKLSLEKYQPIFEEQEVDMEAFLTLTDGDLKELGIKTDGSRQQILAAISELNAG [K10E]	-0.084 ± 0.082
DEDELTGILAKLSLEKYQPIFEEQEVDMEAFLTLTDGDLKELGIKTDGSRQQILAAISELNAG [K10A]	-0.069 ± 0.052
DEDELTGILNKLSLEKYQPIFEEQEVDMEAFLTLTDGDLKELGIKTDGSRQQILAAISELNAG [K10N]	-0.481 ± 0.067
DEDELTGILQKLSLEKYQPIFEEQEVDMEAFLTLTDGDLKELGIKTDGSRQQILAAISELNAG [K10Q]	-0.233 ± 0.088
DEDELTGILLKLSLEKYQPIFEEQEVDMEAFLTLTDGDLKELGIKTDGSRQQILAAISELNAG [K10L]	-0.656 ± 0.059

Variant	abundance fitness
DEDELTGILFKLSLEKYQPIFEEQEVDMEAFLTLTDGDLKELGIKTDGSRQQILAAISELNAG [K10F]	-1.16 ± 0.15
DEDELTGILHKLSLEKYQPIFEEQEVDMEAFLTLTDGDLKELGIKTDGSRQQILAAISELNAG [K10H]	-0.406 ± 0.066
DEDELTGILDKLSLEKYQPIFEEQEVDMEAFLTLTDGDLKELGIKTDGSRQQILAAISELNAG [K10D]	-0.663 ± 0.087
DEDELTGILGKLSLEKYQPIFEEQEVDMEAFLTLTDGDLKELGIKTDGSRQQILAAISELNAG [K10G]	-0.56 ± 0.046
DEDEKTGILKKLSLEKYQPIFEEQEVDMEAFLTLTDGDLKELGIKTDGSRQQILAAISELNAG [L5K]	-0.895 ± 0.15
DEDEITGILKKLSLEKYQPIFEEQEVDMEAFLTLTDGDLKELGIKTDGSRQQILAAISELNAG [L5I]	-0.05 ± 0.16
DEDEETGILKKLSLEKYQPIFEEQEVDMEAFLTLTDGDLKELGIKTDGSRQQILAAISELNAG [L5E]	-1.07 ± 0.15
DEDEPTGILKKLSLEKYQPIFEEQEVDMEAFLTLTDGDLKELGIKTDGSRQQILAAISELNAG [L5P]	-0.559 ± 0.092
DEDEVTGILKKLSLEKYQPIFEEQEVDMEAFLTLTDGDLKELGIKTDGSRQQILAAISELNAG [L5V]	-0.18 ± 0.056
DEDEATGILKKLSLEKYQPIFEEQEVDMEAFLTLTDGDLKELGIKTDGSRQQILAAISELNAG [L5A]	-0.864 ± 0.068
DEDERTGILKKLSLEKYQPIFEEQEVDMEAFLTLTDGDLKELGIKTDGSRQQILAAISELNAG [L5R]	-0.71 ± 0.087
DEDEMTGILKKLSLEKYQPIFEEQEVDMEAFLTLTDGDLKELGIKTDGSRQQILAAISELNAG [L5M]	-0.116 ± 0.15
DEDEYTGILKKLSLEKYQPIFEEQEVDMEAFLTLTDGDLKELGIKTDGSRQQILAAISELNAG [L5Y]	-0.504 ± 0.12
DEDESTGILKKLSLEKYQPIFEEQEVDMEAFLTLTDGDLKELGIKTDGSRQQILAAISELNAG [L5S]	-0.84 ± 0.1
DEDEDTGILKKLSLEKYQPIFEEQEVDMEAFLTLTDGDLKELGIKTDGSRQQILAAISELNAG [L5D]	-1.01 ± 0.11
DEDEQTGILKKLSLEKYQPIFEEQEVDMEAFLTLTDGDLKELGIKTDGSRQQILAAISELNAG [L5Q]	-0.639 ± 0.13
DEDEGTGILKKLSLEKYQPIFEEQEVDMEAFLTLTDGDLKELGIKTDGSRQQILAAISELNAG [L5G]	-0.969 ± 0.12
DEDEHTGILKKLSLEKYQPIFEEQEVDMEAFLTLTDGDLKELGIKTDGSRQQILAAISELNAG [L5H]	-0.839 ± 0.13
DEDELTCILKKLSLEKYQPIFEEQEVDMEAFLTLTDGDLKELGIKTDGSRQQILAAISELNAG [G7C]	-0.072 ± 0.089
DEDELTAILKKLSLEKYQPIFEEQEVDMEAFLTLTDGDLKELGIKTDGSRQQILAAISELNAG [G7A]	0.042 ± 0.05
DEDELTMILKKLSLEKYQPIFEEQEVDMEAFLTLTDGDLKELGIKTDGSRQQILAAISELNAG [G7M]	0.199 ± 0.073
DEDELTFILKKLSLEKYQPIFEEQEVDMEAFLTLTDGDLKELGIKTDGSRQQILAAISELNAG [G7F]	-0.027 ± 0.12

Variant	abundance fitness
DEDELTKILKKLSLEKYQPIFEEQEVDMEAFLTLTDGDLKELGIKTDGSRQQILAAISELNAG [G7K]	0.048 ± 0.081
DEDELTDILKKLSLEKYQPIFEEQEVDMEAFLTLTDGDLKELGIKTDGSRQQILAAISELNAG [G7D]	0.039 ± 0.092
DEDELTIILKKLSLEKYQPIFEEQEVDMEAFLTLTDGDLKELGIKTDGSRQQILAAISELNAG [G7I]	0.129 ± 0.11
DEDELTWILKKLSLEKYQPIFEEQEVDMEAFLTLTDGDLKELGIKTDGSRQQILAAISELNAG [G7W]	-0.005 ± 0.063
DEDELTQILKKLSLEKYQPIFEEQEVDMEAFLTLTDGDLKELGIKTDGSRQQILAAISELNAG [G7Q]	0.177 ± 0.099
DEDELTNILKKLSLEKYQPIFEEQEVDMEAFLTLTDGDLKELGIKTDGSRQQILAAISELNAG [G7N]	-0.092 ± 0.13
DEDELTTILKKLSLEKYQPIFEEQEVDMEAFLTLTDGDLKELGIKTDGSRQQILAAISELNAG [G7T]	0.111 ± 0.067
DEDELTPILKKLSLEKYQPIFEEQEVDMEAFLTLTDGDLKELGIKTDGSRQQILAAISELNAG [G7P]	-0.111 ± 0.068
DEDELTLILKKLSLEKYQPIFEEQEVDMEAFLTLTDGDLKELGIKTDGSRQQILAAISELNAG [G7L]	0.102 ± 0.11
DEDELTYILKKLSLEKYQPIFEEQEVDMEAFLTLTDGDLKELGIKTDGSRQQILAAISELNAG [G7Y]	-0.044 ± 0.11
DEDELTHILKKLSLEKYQPIFEEQEVDMEAFLTLTDGDLKELGIKTDGSRQQILAAISELNAG [G7H]	0.185 ± 0.1
DEDELTEILKKLSLEKYQPIFEEQEVDMEAFLTLTDGDLKELGIKTDGSRQQILAAISELNAG [G7E]	-0.016 ± 0.095
DEDELTVILKKLSLEKYQPIFEEQEVDMEAFLTLTDGDLKELGIKTDGSRQQILAAISELNAG [G7V]	-0.191 ± 0.057
DEDELTRILKKLSLEKYQPIFEEQEVDMEAFLTLTDGDLKELGIKTDGSRQQILAAISELNAG [G7R]	0.108 ± 0.045
DEDWLTGILKKLSLEKYQPIFEEQEVDMEAFLTLTDGDLKELGIKTDGSRQQILAAISELNAG [E4W]	-0.582 ± 0.087
DEDYLTGILKKLSLEKYQPIFEEQEVDMEAFLTLTDGDLKELGIKTDGSRQQILAAISELNAG [E4Y]	-0.511 ± 0.16
DEDELAGILKKLSLEKYQPIFEEQEVDMEAFLTLTDGDLKELGIKTDGSRQQILAAISELNAG [T6A]	0.146 ± 0.11
DEDELIGILKKLSLEKYQPIFEEQEVDMEAFLTLTDGDLKELGIKTDGSRQQILAAISELNAG [T6I]	-0.436 ± 0.29
DEDELVGILKKLSLEKYQPIFEEQEVDMEAFLTLTDGDLKELGIKTDGSRQQILAAISELNAG [T6V]	-0.353 ± 0.22

— the Human Domainome abundance scans (Beltran et al. 2025)
